Results taken from patent publication US20120316071A1 (published 2012).
Numbering of substitutions follows the chain as printed. Names and notes keep the numbering of the source.

Experiments:
[1] = biological target: T1, Recombinant Human DLL4 (R&D Systems Cat#1506-D4/CF) (human, UniProt Q9NR61 27-524); test: MSD Multispot ECL, antigen spotted on plate, Fab in solution; blank spot of the row 240
T1 construct: Bought recombinant protein; also called delta-like protein 4; Delta-like 4

[2] = biological target: T2, rHuman P-Cadherin/Fc Chimera, CF (R&D Systems Cat#861-PC) (human, UniProt P22223 108-654); test: as above
T2 construct: Bought recombinant Fc chimera; Fc part of the bought chimera not given

[3] = biological target: T3, rHuman HGF R/c-MET/Fc Chimera, CF (R&D Systems Cat#358-MT/CF) (human, UniProt P08581 25-932); test: as above
T3 construct: Bought recombinant Fc chimera; also called HGF R/Fc; hepatocyte growth factor receptor; Fc part of the bought chimera not given

[4] = biological target: T4, rHuman EGF R/Fc Chimera, CF (R&D Systems Cat#344-ER) (human, UniProt P00533 25-645); test: as above
T4 construct: Bought recombinant Fc chimera; also called epidermal growth factor receptor; Fc part of the bought chimera not given

[5] = biological target: T5, rHuman Erythropoietin R/Fc Chimera, CF (R&D Systems Cat#963-ER) (human, UniProt P19235 25-250); test: as above
T5 construct: Bought recombinant Fc chimera; also called EPO R; EPO R/Fc; Fc part of the bought chimera not given
T5 sequence (looked up): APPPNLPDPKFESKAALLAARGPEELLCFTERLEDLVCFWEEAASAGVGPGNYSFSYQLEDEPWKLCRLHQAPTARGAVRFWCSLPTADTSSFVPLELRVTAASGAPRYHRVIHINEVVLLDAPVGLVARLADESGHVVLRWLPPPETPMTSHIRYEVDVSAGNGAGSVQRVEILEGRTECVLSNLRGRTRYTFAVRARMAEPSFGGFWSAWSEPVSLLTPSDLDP

[6] = biological target: T6, rHuman Notch-1/Fc Chimera, CF (R&D Systems Cat#3647-TK) (human, UniProt P46531 19-526); test: as above
T6 construct: Bought recombinant Fc chimera; Fc part of the bought chimera not given

[7] = biological target: T1, Recombinant Human DLL4 (R&D Systems …); test: MSD Multispot ECL, antigen spotted on plate, Fab in solution; blank spot of the row 424
[8] = biological target: T2, rHuman P-Cadherin/Fc Chimera, CF (R&D …); test: as above
[9] = biological target: T3, rHuman HGF R/c-MET/Fc Chimera, CF (R&D …); test: as above
[10] = biological target: T4, rHuman EGF R/Fc Chimera, CF (R&D …); test: as above
[11] = biological target: T5, rHuman Erythropoietin R/Fc Chimera, CF …; test: as above
[12] = biological target: T6, rHuman Notch-1/Fc Chimera, CF (R&D …); test: as above
[13] = biological target: T7, rHuman P-Cadherin/Fc Chimera, CF (R&D Systems Cat#861-PC) (human, UniProt P22223 108-654); test: ECL (MSD) multispot binding assay, antigen spotted on the plate, Fab in solution; blank spot of this well 213
T7 construct: Bought reagent; Fc part of the bought chimera not given

[14] = biological target: T8, rHuman Erythropoietin R/Fc Chimera, CF (R&D Systems Cat#963-ER) (human, UniProt P19235 25-250); test: as above
T8 construct: Bought reagent; also called EPO R/Fc; EPO R; Fc part of the bought chimera not given
T8 sequence (looked up): T5 sequence (looked up)

[15] = biological target: T9, Recombinant Human DLL4 (R&D Systems Cat#1506-D4/CF) (human, UniProt Q9NR61 27-524); test: as above
T9 construct: Bought recombinant protein; also called rHuman DLL4; delta-like protein 4

rHuman CD44/Fc Chimera [16] = biological target: T10, rHuman CD44/Fc Chimera (human, UniProt P16070 21-220); test: ECL (MSD) multispot assay, antigen spotted; blank spot of this row 424
T10 construct: not shown: Fc of the bought R&D Systems chimera

rHuman ErbB2/Fc Chimera [17] = biological target: T11, rHuman ErbB2/Fc Chimera (human, UniProt P04626 23-652); test: as above
T11 construct: not shown: Fc of the bought R&D Systems chimera

[18] = biological target: T12, rHuman Erythropoietin R/Fc Chimera (human, UniProt P19235 25-250); test: as above
T12 construct: also called EPO R; EPO R/Fc; not shown: Fc of the bought R&D Systems chimera
T12 sequence (looked up): T5 sequence (looked up)

[19] = biological target: T13, rHuman P-Cadherin/Fc Chimera (human, UniProt P22223 108-654); test: as above
T13 construct: R&D Systems Cat#861-PC; not shown: Fc of the bought R&D Systems chimera

[20] = biological target: T14, Recombinant Human DLL4 (delta-like protein 4) (human, UniProt Q9NR61 27-524); test: as above
T14 construct: Bought recombinant protein (R&D Systems Cat#1506-D4/CF); also called rHuman DLL4

[21] = biological target: T15, rHuman Notch-1/Fc Chimera (human, UniProt P46531 19-526); test: as above
T15 construct: R&D Systems Cat#3647-TK; not shown: Fc of the bought R&D Systems chimera

rHuman EGF R/Fc Chimera [22] = biological target: T16, rHuman EGF R/Fc Chimera (human, UniProt P00533 25-645); test: as above
T16 construct: not shown: Fc of the bought R&D Systems chimera

[23] = biological target: T14, Recombinant Human DLL4 (delta-like …); test: ECL (MSD) multispot binding assay; value equals DLL4 signal over blank of Table 91
[24] = biological target: T14, Recombinant Human DLL4 (delta-like …); test: ELISA, DLL4 coated on plate
[25] = biological target: T13, rHuman P-Cadherin/Fc Chimera; test: ECL (MSD) multispot assay, antigen spotted; blank spot of this row 236
[26] = biological target: T14, Recombinant Human DLL4 (delta-like …); test: as above
rHuman EGF R/Fc Chimera [27] = biological target: T16, rHuman EGF R/Fc Chimera; test: as above
[28] = biological target: T13, rHuman P-Cadherin/Fc Chimera; test: ECL (MSD) multispot assay, antigen spotted; blank spot of this row 223
[29] = biological target: T15, rHuman Notch-1/Fc Chimera; test: as above
rHuman EGF R/Fc Chimera [30] = biological target: T16, rHuman EGF R/Fc Chimera; test: as above
rHuman CD44/Fc Chimera [31] = biological target: T10, rHuman CD44/Fc Chimera; test: ECL (MSD) multispot assay, antigen spotted; blank spot of this row 284
rHuman ErbB2/Fc Chimera [32] = biological target: T11, rHuman ErbB2/Fc Chimera; test: as above
[33] = biological target: T13, rHuman P-Cadherin/Fc Chimera; test: as above
[34] = biological target: T14, Recombinant Human DLL4 (delta-like …); test: as above
[35] = biological target: T15, rHuman Notch-1/Fc Chimera; test: as above
rHuman EGF R/Fc Chimera [36] = biological target: T16, rHuman EGF R/Fc Chimera; test: as above

T3 sequence (P08581 25-932, change not shown): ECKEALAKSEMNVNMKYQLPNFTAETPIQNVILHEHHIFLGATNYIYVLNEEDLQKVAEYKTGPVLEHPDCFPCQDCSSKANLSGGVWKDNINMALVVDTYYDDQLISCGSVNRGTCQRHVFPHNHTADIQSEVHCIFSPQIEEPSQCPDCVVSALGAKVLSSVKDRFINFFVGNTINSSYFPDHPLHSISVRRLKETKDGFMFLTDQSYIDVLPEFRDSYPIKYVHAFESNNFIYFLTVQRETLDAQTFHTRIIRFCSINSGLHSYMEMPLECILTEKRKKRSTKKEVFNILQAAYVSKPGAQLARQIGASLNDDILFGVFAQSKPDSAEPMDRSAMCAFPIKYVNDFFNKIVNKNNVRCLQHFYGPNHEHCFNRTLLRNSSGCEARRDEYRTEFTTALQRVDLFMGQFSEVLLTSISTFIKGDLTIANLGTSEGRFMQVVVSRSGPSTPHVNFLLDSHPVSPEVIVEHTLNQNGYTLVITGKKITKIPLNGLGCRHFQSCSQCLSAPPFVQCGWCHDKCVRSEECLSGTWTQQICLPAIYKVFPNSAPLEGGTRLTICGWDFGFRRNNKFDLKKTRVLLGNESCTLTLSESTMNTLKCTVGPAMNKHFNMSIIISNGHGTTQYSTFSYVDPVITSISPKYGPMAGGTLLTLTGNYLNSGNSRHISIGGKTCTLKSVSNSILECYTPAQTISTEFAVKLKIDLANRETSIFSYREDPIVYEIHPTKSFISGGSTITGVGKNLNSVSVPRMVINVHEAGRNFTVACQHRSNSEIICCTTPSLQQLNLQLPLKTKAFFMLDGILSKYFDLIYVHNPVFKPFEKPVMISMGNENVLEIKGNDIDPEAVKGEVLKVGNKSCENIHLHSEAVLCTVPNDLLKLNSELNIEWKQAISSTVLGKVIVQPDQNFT

B1: Fab VH5-51_IGHD5-18*01>3_IGHJ4*01 G100K/G104T (KT) & V3-4_IGLJ1*01 (Fab, V domains shown)
VH: EVQLVQSGAEVKKPGESLKISCKGSGYSFTSYWIGWVRQMPGKGLEWMGIIYPGDSDTRYSPSFQGQVTISADKSISTAYLQWSSLKASDTAMYYCARRKYSYTYDYFDYWGQGTLVTVSS
VL: QTVVTQEPSFSVSPGGTVTLTCGLSSGSVSTSYYPSWYQQTPGQAPRTLIYSTNTRSSGVPDRFSGSILGNKAALTITGAQADDESDYYCVLYMGSGISYVFGTGTKVTVL
notes: Fab made in E. coli; VH cloned into Plasmid A (CH1, His6 and Flag tags), lambda VL into Plasmid E (lambda CL); also called H:KT & L:wt; KT double mutant
[1]
  ECL signal: 45100
[2]
  ECL signal: 346
[3]
  ECL signal: 936
[4]
  ECL signal: 915
[5]
  ECL signal: 497
[6]
  ECL signal: 507
[7]
  ECL signal: 36400
[8]
  ECL signal: 319
[9]
  ECL signal: 838
[10]
  ECL signal: 852
[11]
  ECL signal: 554
[12]
  ECL signal: 543

B2: Fab VH5-51_IGHD5-18*01>3_IGHJ4*01 G100K/G104T (KT) & V3-4_IGLJ1*01 (Fab, V domains shown)
VH: B1 VH
VL: B1 VL
notes: Tested as a Fab expressed in E. coli; The heavy chain variable region was cloned into Plasmid A (CH1 constant region, His6 and Flag tags); The lambda light chain variable region was cloned into Plasmid E (lambda CL); also called H:KT & L:wt; KT double mutant
[13]
  ECL signal: 226
[14]
  ECL signal: 421
[15]
  ECL signal: 32700

B3: Fab VH5-51_IGHD5-18*01>3_IGHJ4*01 G100K/G104T & V3-4_IGLJ1*01 (Fab, V domains shown)
VH: B1 VH
VL: B1 VL
notes: Fab made in E. coli (heavy chain vector with CH1, His6 and Flag tags; lambda CL vector); also called KT; H:KT
rHuman CD44/Fc Chimera [16]
  ECL signal: 579
rHuman ErbB2/Fc Chimera [17]
  ECL signal: 1100
[18]
  ECL signal: 554
[19]
  ECL signal: 319
[20]
  ECL signal: 36400
[21]
  ECL signal: 543
rHuman EGF R/Fc Chimera [22]
  ECL signal: 852
[23]
  ECL signal-to-blank ratio: 85.9
[24]
  ELISA (Signal-Noise): 0

B4: Fab VH5-51_IGHD5-18*01>3_IGHJ4*01 G100K/G104T S84V & V3-4_IGLJ1*01 (Fab, V domains shown)
VH: B1 VH with S84V
VL: B1 VL
notes: Fab made in E. coli (heavy chain vector with CH1, His6 and Flag tags; lambda CL vector)
[25]
  ECL signal: 362
[26]
  ECL signal: 8890
rHuman EGF R/Fc Chimera [27]
  ECL signal: 805
[23]
  ECL signal-to-blank ratio: 37.7
[24]
  ELISA (Signal-Noise): 0.02

B5: Fab VH5-51_IGHD5-18*01>3_IGHJ4*01 G100K/G104T S84L & V3-4_IGLJ1*01 (Fab, V domains shown)
VH: B1 VH with S84L
VL: B1 VL
notes: as for B4
[28]
  ECL signal: 320
[29]
  ECL signal: 410
rHuman EGF R/Fc Chimera [30]
  ECL signal: 864

B6: Fab VH5-51_IGHD5-18*01>3_IGHJ4*01 G100K/G104T D109A & V3-4_IGLJ1*01 (Fab, V domains shown)
VH: B1 VH with D109A
VL: B1 VL
notes: as for B4
rHuman CD44/Fc Chimera [31]
  ECL signal: 538
rHuman ErbB2/Fc Chimera [32]
  ECL signal: 1100
[33]
  ECL signal: 406
[34]
  ECL signal: 21800
[35]
  ECL signal: 443
rHuman EGF R/Fc Chimera [36]
  ECL signal: 791
[23]
  ECL signal-to-blank ratio: 76.8
[24]
  ELISA (Signal-Noise): 0
